Test results reported in the supplement of paper PMC12042874.
± gives the uncertainty stated by the source.

Assay: amyloid nucleation score (Sup35N fusion, yeast selection) (log enrichment); library NNK2; higher = more nucleation; inactive = no reads after selection
Procedure, shortened: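 In psi-negative yeast, Sup35N fusions carrying peptides of 20 random codons were induced with 100 μM copper sulfate for 24 hours. The cells then grew 7 days at 30°C on medium lacking adenine and uracil, and plasmid inserts from input and output were Illumina-sequenced, excluding sequences with under 100 input reads. Nucleation score is the DiMSum log enrichment of output over input reads, centred on the mode score of non-aggregating sequences.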

SVNMFKFRTDSSFCDLTLCH
amyloid nucleation score: 0.423 ± 0.8

LLFSG
amyloid nucleation score: 1.62 ± 0.32

TEPSGTGKTRGSQRTLHRYV
amyloid nucleation score: -0.323 ± 0.79

VWGHWPSRFSQQSRCN
amyloid nucleation score: 0.185 ± 0.5

FKFVGNSQAQVWNMCESNDS
amyloid nucleation score: -0.369 ± 0.64

MKLVECNMDGCDTNTSFGWL
amyloid nucleation score: -0.884 ± 0.78

DFSLGLWRVTDIDYVSNVSL
amyloid nucleation score: 0.151 ± 0.8

DCRIVREHLPCPSFFRSFSR
amyloid nucleation score: 0.164 ± 1.1

AWDGIHTMMITYLKFIEKCQ
amyloid nucleation score: -1.31 ± 0.62

LYVSFDYGAQRVHYSTAYVK
amyloid nucleation score: -0.013 ± 0.48

YLVNNAEMVNMELMISVSGA
amyloid nucleation score: -0.337 ± 0.38

ENNFYY
amyloid nucleation score: 0.953 ± 0.26

VFYNIL
amyloid nucleation score: inactive

CRTLSGCYQDCGAVNGVLRV
amyloid nucleation score: 1.22 ± 0.3

YLFSLKQLWF
amyloid nucleation score: 5.06 ± 0.078

TNGRCVELVMMYKYSLFVGD
amyloid nucleation score: 1.05 ± 0.61

YEDSGRRKLLNGP
amyloid nucleation score: -0.381 ± 1.1

IRSNIGNSWNTLIFVYCCYT
amyloid nucleation score: 6.415 ± 0.049

FRNTWFCFLLKLLTS
amyloid nucleation score: -0.818 ± 0.42

YYHCPTSFFYIV
amyloid nucleation score: inactive

KAVCGCLLLGFVNFLYPVEV
amyloid nucleation score: -0.495 ± 0.21

ANGSKGLVLTLNGDSKCVEC
amyloid nucleation score: 0.188 ± 0.25

FEAFLSMWIFAPECLRAHSV
amyloid nucleation score: -0.288 ± 1.1

VWVKVLYYSRDICTLWSPGW
amyloid nucleation score: -0.059 ± 0.5

KMDRDS
amyloid nucleation score: -0.125 ± 0.38

FFRGSYTRAWH
amyloid nucleation score: 0.967 ± 0.29

VGKWVRGQTSLLLVAWSAIY
amyloid nucleation score: 0.28 ± 0.61

NRWYKLRLYICYDLRIAVFN
amyloid nucleation score: -1.58 ± 1.1

YGWRSRYVPCPAGRRCVMSQ
amyloid nucleation score: 0.53 ± 0.2

LDLRMRYQVPYQWGTNSAEN
amyloid nucleation score: 0.629 ± 0.48

NRFDDVSDDVKTCC
amyloid nucleation score: 5.82 ± 0.059

ALWCRENFINCYIPYLQMFF
amyloid nucleation score: 6.219 ± 0.036

DPQRVFFWLPYMNLYQHEPF
amyloid nucleation score: 0.025 ± 1.1

CCGGVRMMEELRCSTWSRVV
amyloid nucleation score: 0.868 ± 0.26

IVMSCSMNPIEAYEVLCEFF
amyloid nucleation score: 0.382 ± 0.8

ALYRL
amyloid nucleation score: 0.233 ± 0.62

VWLCCLCWVQMDLANVNLWL
amyloid nucleation score: 8.315 ± 0.053

LSIRYLVYEPN
amyloid nucleation score: 0.27 ± 0.36

ICVECSYVYMTGGKV
amyloid nucleation score: 3.79 ± 0.057

VAILIMHCGAGSCRQMLMDS
amyloid nucleation score: 0.305 ± 0.45

LAPLDLSLVFWNTRNVLVL
amyloid nucleation score: 0.746 ± 0.67

LLLCYS
amyloid nucleation score: -0.344 ± 0.27

IPYNLIASVMLFKDLNWFAK
amyloid nucleation score: 6.491 ± 0.05

IYRLDHRACP
amyloid nucleation score: 1.03 ± 0.38

PVIYSF
amyloid nucleation score: 7.115 ± 0.031

TDRIDCAFAYDYL
amyloid nucleation score: -1.08 ± 0.54

VKPVSVFL
amyloid nucleation score: -0.11 ± 0.63

VLYFLLLFFRD
amyloid nucleation score: inactive

CTAYNITYMTATSRGMSC
amyloid nucleation score: inactive

LIFFYSS
amyloid nucleation score: -1.05 ± 1

NMSCKFSNPWNWFD
amyloid nucleation score: -0.11 ± 0.39

ISRYEGRRLKCDGITFGYSG
amyloid nucleation score: -0.031 ± 0.23

DGNFHNFLLCNNEMFREMDC
amyloid nucleation score: 2.63 ± 0.13

LYYMHNE
amyloid nucleation score: -0.652 ± 0.64

SLLGLNFCSMLAIL
amyloid nucleation score: 3.23 ± 0.075

RVDYSMREFCLSSRAREDTV
amyloid nucleation score: -0.353 ± 0.42

DCSMVIMYFASGRSRALSNR
amyloid nucleation score: 4.48 ± 0.067

QGRGLRYQH
amyloid nucleation score: 0.166 ± 0.76

YSEWSSTRPQFRTLNHEWLL
amyloid nucleation score: 0.498 ± 0.74

FAYSLTPFRWSRDLLMSPLG
amyloid nucleation score: 0.104 ± 0.28

DIKYCRSFCWLSTIFRTLGP
amyloid nucleation score: 0.249 ± 0.37

AEMVSANRLSKCEMTIRLWD
amyloid nucleation score: 3.64 ± 0.077

WVNYFEGLMIPVSARN
amyloid nucleation score: -1.16 ± 0.76

SCIMECM
amyloid nucleation score: -0.108 ± 1.1

STPPLILQSYV
amyloid nucleation score: -1.17 ± 0.75

SRIFVLYYSWDAWNSWGDVV
amyloid nucleation score: 0.602 ± 0.6

NLTVCMLDSPGYQKDCGMRL
amyloid nucleation score: 1.54 ± 0.27

WDPLSSCKGACDM
amyloid nucleation score: 0.717 ± 0.43

LRFNDFA
amyloid nucleation score: inactive

YCRHGGNRASL
amyloid nucleation score: 0.783 ± 0.53

FVEMYGLWPSFGVKRKVLKV
amyloid nucleation score: -0.904 ± 0.53

VWEIEGEPPWVQSVCSWDPR
amyloid nucleation score: 3.85 ± 0.057

GIKRMCMVPPVIKSNAYSLN
amyloid nucleation score: 2.95 ± 0.062

CTYVYESRHQGIGVLASLSN
amyloid nucleation score: -0.784 ± 0.76

LRSCRMSDDMK
amyloid nucleation score: 1.18 ± 0.34

HLFYCRSIGDILRSFGETPT
amyloid nucleation score: inactive

KSDPAVIPY
amyloid nucleation score: 0.713 ± 0.45

FQIRT
amyloid nucleation score: inactive

SLKEIECFSQ
amyloid nucleation score: inactive

GIKFCEPCDGGHGDGIWPLT
amyloid nucleation score: 0.708 ± 0.29

SKARGLCFLSVLLFISDQST
amyloid nucleation score: -1.78 ± 1.1

LGCYTYLQEVRMGEDTARGG
amyloid nucleation score: 0.386 ± 0.39

LVSVVWTKCRRGQRGVLVAS
amyloid nucleation score: 1.06 ± 0.38

FSSIDWLCRRCSQGNRAGID
amyloid nucleation score: 0.371 ± 0.66

DNSFMSLYLVRIHFTYPVAA
amyloid nucleation score: 3.69 ± 0.082

FHLLVVNFDTSLPLRQWKLE
amyloid nucleation score: 0.059 ± 0.3
